Measured values from the supplement of paper PMC9112550, “Optimization of the antimicrobial peptide Bac7 by deep mutational scanning” (BMC Biology, 2022).

Tested on: Escherichia coli TOP10
Assay: shrunken log2 fold change of peptide-encoding DNA abundance (4.5 h post-induction vs induction); higher = less antimicrobial activity (less host growth inhibition)
Conditions: time post-induction: 4.5 h; library: site-saturation at positions 5, 18, 19, 20
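Also: peptides expressed intracellularly from a pBAD plasmid library in pooled LB shake-flask culture, induced with 0.3% L-arabinose, DNA abundance read by NGS, three biological replicates, DESeq2 with apeglm shrinkage.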

| Sequence | shrunken log2 fold change |
| --- | --- |
| RRIRHRPPRLPRPRPRPISHPRP | -0.0873 |
| RRIRHRPPRLPRPRPRPEINPRP | -0.253 |
| RRIRRRPPRLPRPRPRPVLLPRP | 0.103 |
| RRIRERPPRLPRPRPRPNSSPRP | -0.494 |
| RRIRKRPPRLPRPRPRPKGPPRP | 0.828 |
| RRIRWRPPRLPRPRPRPSEIPRP | -0.178 |
| RRIRKRPPRLPRPRPRPWFIPRP | -0.131 |
| RRIRHRPPRLPRPRPRPRTCPRP | -0.0538 |
| RRIRWRPPRLPRPRPRPQYYPRP | -0.0952 |
| RRIRKRPPRLPRPRPRPSCGPRP | 0.817 |
| RRIRERPPRLPRPRPRPQYYPRP | -0.676 |
| RRIRRRPPRLPRPRPRPMESPRP | -0.00992 |
| RRIRYRPPRLPRPRPRPVTWPRP | -0.207 |
| RRIRWRPPRLPRPRPRPYVGPRP | -0.157 |
| RRIRSRPPRLPRPRPRPAAQPRP | 0.833 |
| RRIRNRPPRLPRPRPRPELEPRP | 0.47 |
| RRIRLRPPRLPRPRPRPEHYPRP | -0.00385 |
| RRIRLRPPRLPRPRPRPWSNPRP | -0.195 |
| RRIRERPPRLPRPRPRPSCVPRP | -0.356 |
| RRIRQRPPRLPRPRPRPEIRPRP | 0.0114 |
| RRIRRRPPRLPRPRPRPTMMPRP | 0.167 |
| RRIRPRPPRLPRPRPRPLNPPRP | -0.131 |
| RRIRNRPPRLPRPRPRPMMFPRP | -0.0478 |
| RRIRMRPPRLPRPRPRPLDSPRP | 0.204 |
| RRIRYRPPRLPRPRPRPNIEPRP | -0.801 |

| Sequence | shrunken log2 fold change |
| --- | --- |
| RRIRIRPPRLPRPRPRPIDFPRP | -0.0103 |
| RRIRGRPPRLPRPRPRPLVYPRP | 0.0199 |
| RRIRTRPPRLPRPRPRPGFLPRP | 0.122 |
| RRIRDRPPRLPRPRPRPETNPRP | 0.443 |
| RRIRKRPPRLPRPRPRPHKDPRP | -0.113 |
| RRIRARPPRLPRPRPRPDFLPRP | 0.257 |
| RRIRIRPPRLPRPRPRPIPIPRP | -0.317 |
| RRIRERPPRLPRPRPRPGAMPRP | 0.316 |
| RRIRVRPPRLPRPRPRPHIKPRP | -0.389 |
| RRIRWRPPRLPRPRPRPWALPRP | -0.158 |
| RRIRDRPPRLPRPRPRPFPPPRP | -0.113 |
| RRIRCRPPRLPRPRPRPIGHPRP | -0.312 |
| RRIRVRPPRLPRPRPRPHETPRP | -0.0244 |
| RRIRLRPPRLPRPRPRPRFLPRP | -0.144 |
| RRIRARPPRLPRPRPRPVQFPRP | -0.0854 |
| RRIRLRPPRLPRPRPRPKANPRP | 0.0584 |
| RRIRWRPPRLPRPRPRPDPKPRP | -0.0134 |
| RRIRSRPPRLPRPRPRPHDLPRP | 0.0653 |
| RRIRFRPPRLPRPRPRPIDHPRP | -0.0746 |
| RRIRTRPPRLPRPRPRPFEAPRP | 0.0368 |
| RRIRYRPPRLPRPRPRPWRQPRP | -0.00152 |
| RRIRARPPRLPRPRPRPAWLPRP | 0.597 |
| RRIRTRPPRLPRPRPRPEPTPRP | 0.347 |
| RRIRRRPPRLPRPRPRPVGKPRP | -0.105 |
| RRIRARPPRLPRPRPRPNHDPRP | -0.141 |

| Sequence | shrunken log2 fold change |
| --- | --- |
| RRIRCRPPRLPRPRPRPRCEPRP | 0.0872 |
| RRIRHRPPRLPRPRPRPFVHPRP | -0.836 |
| RRIRTRPPRLPRPRPRPMDTPRP | 0.0257 |
| RRIRRRPPRLPRPRPRPWLVPRP | -0.0986 |
| RRIRKRPPRLPRPRPRPYHAPRP | 0.0039 |
| RRIRWRPPRLPRPRPRPPNAPRP | 0.675 |
| RRIRWRPPRLPRPRPRPPFTPRP | 0.21 |
| RRIRGRPPRLPRPRPRPNQGPRP | 0.0411 |
| RRIRYRPPRLPRPRPRPQLNPRP | -1.15 |
| RRIRNRPPRLPRPRPRPVHIPRP | -0.15 |
| RRIRGRPPRLPRPRPRPIRLPRP | -0.0112 |
| RRIRLRPPRLPRPRPRPCAYPRP | -0.189 |
| RRIRLRPPRLPRPRPRPNWCPRP | 0.374 |
| RRIRLRPPRLPRPRPRPFDIPRP | -0.0171 |
| RRIRCRPPRLPRPRPRPIRIPRP | 0.0952 |
| RRIRYRPPRLPRPRPRPLDKPRP | -0.0449 |
| RRIRHRPPRLPRPRPRPAVMPRP | -0.0305 |
| RRIRCRPPRLPRPRPRPRYEPRP | -0.0468 |
| RRIRDRPPRLPRPRPRPPREPRP | 0.837 |
| RRIRGRPPRLPRPRPRPRKHPRP | 0.632 |
| RRIRNRPPRLPRPRPRPWHQPRP | -0.094 |
| RRIRCRPPRLPRPRPRPCGGPRP | 0.113 |
| RRIRNRPPRLPRPRPRPTILPRP | -0.742 |
| RRIRSRPPRLPRPRPRPVCEPRP | 0.369 |
| RRIRHRPPRLPRPRPRPYAHPRP | -0.702 |

| Sequence | shrunken log2 fold change |
| --- | --- |
| RRIRERPPRLPRPRPRPDWCPRP | 0.0337 |
| RRIRQRPPRLPRPRPRPVNYPRP | -0.00127 |
| RRIRKRPPRLPRPRPRPDGEPRP | 1.16 |
| RRIRERPPRLPRPRPRPYMYPRP | -0.501 |
| RRIRFRPPRLPRPRPRPDDAPRP | 0.133 |
| RRIRPRPPRLPRPRPRPCVIPRP | -0.222 |
| RRIRNRPPRLPRPRPRPTRRPRP | 0.805 |
| RRIRKRPPRLPRPRPRPKYKPRP | -0.19 |
| RRIRERPPRLPRPRPRPSMSPRP | -0.0748 |
| RRIRARPPRLPRPRPRPAYSPRP | -0.0547 |
| RRIRLRPPRLPRPRPRPEECPRP | 0.00698 |
| RRIRSRPPRLPRPRPRPFVAPRP | -0.0664 |
| RRIRNRPPRLPRPRPRPCCIPRP | -0.00191 |
| RRIRMRPPRLPRPRPRPWGQPRP | -0.0394 |
| RRIRVRPPRLPRPRPRPTCFPRP | -0.155 |
| RRIRWRPPRLPRPRPRPWTDPRP | -0.0932 |
| RRIRRRPPRLPRPRPRPIAVPRP | -0.0851 |
| RRIRWRPPRLPRPRPRPDSMPRP | -0.0126 |
| RRIRYRPPRLPRPRPRPLENPRP | -0.0143 |
| RRIRFRPPRLPRPRPRPITAPRP | -0.286 |
| RRIRMRPPRLPRPRPRPYSVPRP | 0.0409 |
| RRIRIRPPRLPRPRPRPQHCPRP | -0.248 |
| RRIRTRPPRLPRPRPRPPANPRP | 0.0303 |
| RRIRTRPPRLPRPRPRPLPCPRP | 0.0112 |
| RRIRWRPPRLPRPRPRPMAVPRP | 0.173 |

| Sequence | shrunken log2 fold change |
| --- | --- |
| RRIRDRPPRLPRPRPRPHFKPRP | -0.148 |
| RRIRTRPPRLPRPRPRPEEEPRP | 0.385 |
| RRIRWRPPRLPRPRPRPWAEPRP | 0.267 |
| RRIRNRPPRLPRPRPRPCVAPRP | -0.23 |
| RRIRRRPPRLPRPRPRPIFDPRP | 0.369 |
| RRIRGRPPRLPRPRPRPAWRPRP | 0.934 |
| RRIRMRPPRLPRPRPRPRMPPRP | 0.771 |
| RRIRVRPPRLPRPRPRPSQCPRP | -0.187 |
| RRIRMRPPRLPRPRPRPTRLPRP | 1.19 |
| RRIRVRPPRLPRPRPRPKRMPRP | 0.117 |
| RRIRARPPRLPRPRPRPQHYPRP | -0.474 |
| RRIRLRPPRLPRPRPRPSFLPRP | -0.562 |
| RRIRVRPPRLPRPRPRPMNAPRP | 0.154 |
| RRIRQRPPRLPRPRPRPRIDPRP | 0.0868 |
| RRIRSRPPRLPRPRPRPRPQPRP | 0.72 |
| RRIRRRPPRLPRPRPRPQFLPRP | -0.0792 |
| RRIRNRPPRLPRPRPRPQMGPRP | 0.102 |
| RRIRMRPPRLPRPRPRPFCLPRP | -0.15 |
| RRIRTRPPRLPRPRPRPPCKPRP | -0.193 |
| RRIRFRPPRLPRPRPRPYEVPRP | -0.12 |
| RRIRSRPPRLPRPRPRPMVAPRP | 0.0774 |
| RRIRYRPPRLPRPRPRPGSWPRP | 0.0212 |
| RRIRKRPPRLPRPRPRPENCPRP | 0.654 |
| RRIRFRPPRLPRPRPRPAPDPRP | 0.323 |
| RRIRIRPPRLPRPRPRPNQVPRP | -0.429 |
